# Source: US20150259384A1
# Tests used:
# [1] = target: Human Rb construct (residues 53-787, delta245-267, delta582-642, S780A), phosphorylated with recombinant Cdk (human) (UniProt P06400); test: isothermal titration calorimetry; E2F (~1 mM) titrated into ~50 uM phosphorylated Rb
# [2] = target: Human Rb construct (residues 53-787, delta245-267, delta582-642, S780A), un-phosphorylated (human) (UniProt P06400); test: isothermal titration calorimetry; E2F (~1 mM) titrated into ~50 uM un-phosphorylated Rb
# [3] = target: Phosphorylated human Rb construct (residues 53-787, delta245-267, delta582-642, S780A) saturated with the … peptide (human) (UniProt P06400); test: isothermal titration calorimetry; E2F (~1 mM) titrated into ~50 uM phosphorylated Rb first saturated with the … peptide
# Sequence of Phosphorylated human Rb construct (residues 53-787, delta245-267, delta582-642, S780A) saturated with the … peptide (human) (P06400 other isoform, or with tags, fused parts or gaps S780A S780A limits assumed): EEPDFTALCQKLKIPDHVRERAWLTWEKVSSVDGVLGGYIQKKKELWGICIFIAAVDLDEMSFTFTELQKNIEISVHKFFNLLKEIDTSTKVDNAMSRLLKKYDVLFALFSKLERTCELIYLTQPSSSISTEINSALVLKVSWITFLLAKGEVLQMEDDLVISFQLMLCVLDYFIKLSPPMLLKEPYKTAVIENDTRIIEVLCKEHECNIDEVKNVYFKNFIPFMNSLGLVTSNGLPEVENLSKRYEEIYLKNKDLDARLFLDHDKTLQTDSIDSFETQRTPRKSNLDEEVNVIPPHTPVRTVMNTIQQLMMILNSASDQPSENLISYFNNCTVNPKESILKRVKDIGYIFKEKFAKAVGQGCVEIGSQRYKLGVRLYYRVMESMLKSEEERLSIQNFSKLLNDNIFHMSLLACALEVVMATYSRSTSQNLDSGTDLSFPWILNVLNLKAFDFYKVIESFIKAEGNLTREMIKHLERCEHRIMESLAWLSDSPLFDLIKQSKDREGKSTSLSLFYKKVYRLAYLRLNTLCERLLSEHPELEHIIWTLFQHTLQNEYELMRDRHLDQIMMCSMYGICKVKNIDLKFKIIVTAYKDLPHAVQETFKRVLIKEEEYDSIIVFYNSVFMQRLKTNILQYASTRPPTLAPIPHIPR
# Sequence of Human Rb construct (residues 53-787, delta245-267, delta582-642, S780A), phosphorylated with recombinant Cdk (human) (P06400 other isoform, or with tags, fused parts or gaps S780A S780A limits assumed): as above
# Sequence of Human Rb construct (residues 53-787, delta245-267, delta582-642, S780A), un-phosphorylated (human) (P06400 other isoform, or with tags, fused parts or gaps S780A S780A limits assumed): as above
substance,measurement,setting,value
Human E2F1 transactivation domain (residues 380-727) (from UniProt Q01094 380-437),Kd,[1],3000 nM
same,Kd,[2],100 nM
same,Kd,[3],700 nM
